{
  "source": "paper PMC10932109",
  "about": "“Solution Structures of Two Different FRP-OCP Complexes as Revealed via SEC-SANS” (International Journal of Molecular Sciences, 2024)",
  "key": {"[1]": {"target": "OCPR (Synechocystis sp. PCC 6803) (UniProt P74102)", "conditions": "cited from earlier work"}, "[2]": {"target": "OCPO (Synechocystis sp. PCC 6803) (UniProt P74102)", "conditions": "cited from earlier work"}, "[3]": {"target": "T1, orange carotenoid protein lacking the N-terminal extension (^∆NTEOCP^O) (Synechocystis sp. PCC 6803, UniProt P74102 13-317)", "T1 construct": "glycine left from the human rhinovirus 3C protease site (LEVLFQ/GP) after cleavage; the P of GP is read as Pro13 of OCP; Orange carotenoid protein (OCP), Synechocystis sp; PCC 6803, slr1963, from Pro13 (P-NTLAA...) to the C-terminus; the N-terminal extension is removed with the His-tag by 3C cleavage; Gene optimised for E. coli, vector pRSFDuet-1; also called ^ΔNTEOCP^O; compact mutant of OCP …", "T1 sequence": "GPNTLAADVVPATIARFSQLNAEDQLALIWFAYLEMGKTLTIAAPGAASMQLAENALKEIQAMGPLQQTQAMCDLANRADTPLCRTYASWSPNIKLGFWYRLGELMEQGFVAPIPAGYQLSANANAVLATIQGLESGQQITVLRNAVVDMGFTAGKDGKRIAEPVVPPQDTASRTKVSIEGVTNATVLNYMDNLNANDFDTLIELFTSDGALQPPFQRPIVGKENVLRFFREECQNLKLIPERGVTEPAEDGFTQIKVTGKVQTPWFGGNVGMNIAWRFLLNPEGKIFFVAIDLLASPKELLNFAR", "assay": "SEC + other: SANS; in-line SEC-SANS at D22 (ILL); Superdex 200 Increase 10/300 GL; 25 °C; 250 µL injected at about 5 mg/mL total protein; two fractions (high MW, low MW) analysed separately; stoichiometries assigned from dimensions, DAMMIF shapes and Pepsi-SANS FlexFit models", "conditions": "both partners purified"}, "[4]": {"target": "the molecule itself", "assay": "SEC + other: SANS; in-line SEC-SANS at D22 (ILL); Superdex 200 Increase 10/300 GL; 25 °C; 250 µL injected at about 5 mg/mL total protein; two fractions (high MW, low MW) analysed separately; stoichiometries assigned from dimensions, DAMMIF shapes and Pepsi-SANS FlexFit models"}},
  "note": "Values joined by “and” are separate entries in the source; they are usually repeats but may differ in a detail not shown here. Equal entries are not always repeated.",
  "data": [
    {"molecule": "FRP (from UniProt P74103)", "values": [
      {"measurement": "Kd", "setting": "[1]", "value": 3000, "unit": "nM"},
      {"measurement": "Kd", "setting": "[2]", "value": 35, "unit": "µM"}
    ]},
    {"molecule": "fluorescence recovery protein (FRP), wild type (natural protein, Synechocystis sp. PCC 6803, Fluorescence recovery protein (FRP), Synechocystis sp; PCC 6803, slr1964, wild type; also called wild-type FRP; dimeric FRP; source: E. coli, purified (Superdex 200 Increase 10/300, phosphate-buffered saline)) LQTAEAPWSQAETQSAHALFRKAYQRELDGLLATVQAQASQITQIDDLWKLHDFLSAKRHEIDGKYDDRQSVIIFVFAQLLKEGLVQAEELTFLAADKQSKIKALARL", "values": [
      {"measurement": "stoichiometry N", "setting": "[3]", "value": "2 FRP per ^∆NTEOCP^O (2:1 complex, low MW fraction) and 1 FRP per ^∆NTEOCP^O (2:2 complex, high MW fraction)"},
      {"measurement": "binding result", "setting": "[4]", "value": "binds"}
    ]}
  ]
}
